Test results reported in the Human Domainome abundance scans (Beltran et al. 2025).

B1: Cold shock protein CspB, residues 1 to 66; numbered along this chain, P41016 (parent)
chain: MQRGKVKWFNNEKGYGFIEVEGGSDVFVHFTAIQGEGFKTLEEGQEVSFEIVQGNRGPQAANVVKL
B2: POU domain, class 2, transcription factor 3, residues 186 to 260; numbered along this chain, Q9UKI9 (parent)
chain: SDLEELEKFAKTFKQRRIKLGFTQGDVGLAMGKLYGNDFSQTTISRFEALNLSFKNMCKLKPLLEKWLNDAESSP

Variants of: B1
Test: abundance fitness (aPCA) (normalised: wild type 0, dead -1); higher = more abundant; growth selection in yeast, the domain comes from the species named
Conditions: Bacillus caldolyticus

Abundance fitness, by site and new letter:
R3: A -0.032 | I -0.025 | D -0.023 | G -0.004 | Y 0.027 | Q -0.021 | M 0.019 | S -0.039 | V -0.013 | F -0.003 | W -0.117 | E -0.019 | C -0.076 | K -0.046 | N -0.061 | T -0.024
M1: E 0.008 | H 0.016 | K -0.1 | I -0.006 | L -0.044 | R -0.096 | Y 0.027 | D -0.086 | C -0.102 | W -0.086 | Q -0.021 | F -0.025 | S -0.049 | G -0.064 | T -0.03 | A -0.046
Q2: W 0.001 | T 0.029 | F 0.048 | V 0.018 | I 0.028 | R -0.006 | C 0.027 | D -0.036 | H 0.027 | G -0.043 | S -0.034 | A -0.003 | Y 0.003 | N -0.026 | M 0.051 | E 0.011 | P -0.206
G4: K -0.654 | D -0.891 | N -0.368 | E -0.717 | C -0.905 | A -0.117 | P -0.571 | H -0.409 | F -0.866 | M -0.997

Variants of: B2
Test: as above
Conditions: Homo sapiens

Abundance fitness, by site and new letter:
L64: S -0.743 | W -0.981 | D -0.557 | P -0.802 | V -0.197 | N -0.776 | E -0.888 | Q -0.836 | K -1.01 | C -0.148 | R -0.83 | T -0.462 | G -0.784 | I -0.224 | Y -0.221 | F -0.135
A71: M -0.017 | I -0.074 | Y -0.271 | W -0.076 | P -0.067 | R -0.025 | D -0.322 | Q 0.036 | N 0.093 | S -0.059 | H 0.047 | C -0.169 | V 0.01 | G -0.156 | T -0.005 | K 0.022 | L 0.017 | E -0.01
S74: D -0.065 | K 0.036 | T -0.034 | L -0.119 | F -0.08 | M -0.131 | E -0.172 | Q -0.017 | I -0.033 | V 0.039 | R -0.038 | H 0.058 | W -0.059 | G -0.084 | Y -0.107 | C -0.009
D70: F -0.059 | V -0.096 | S -0.063 | R -0.049 | L -0.09 | A -0.059 | N -0.066 | Y -0.021 | I -0.02 | H -0.131 | C -0.201 | E 0.027 | T 0.082 | G -0.006 | P -0.405 | M -0.103 | K -0.046 | Q 0.003
E65: F -0.118 | R -0.197 | T -0.133 | L -0.043 | Q -0.109 | A -0.07 | W -0.211 | D -0.031 | P -0.58 | M 0.043 | I 0.023 | H -0.05 | N -0.047 | K 0.042 | S -0.096 | C -0.033 | Y -0.215 | V -0.095
S73: T -0.049 | Y -0.121 | N 0.003 | D -0.003 | H -0.017 | M -0.088 | F -0.077 | V -0.038 | C -0.087 | K -0.06 | A -0.012 | P -0.077 | R -0.113 | W -0.173 | Q -0.059 | L -0.078 | E -0.04 | G -0.023
K59: W -0.129 | V -0.086 | T -0.007
N69: P -0.326 | E 0.002 | L -0.068 | W 0.014 | T 0.033 | G 0.042 | D 0.026 | H 0.083 | K -0.125 | Q 0.033 | Y -0.081 | M -0.008 | A -0.029 | I 0.018 | S 0.006 | F 0.061 | V -0.028
W67: M -0.306 | D -0.706 | L -0.246 | Y 0.005 | N -0.909 | T -0.612 | Q -0.761 | G -0.804 | I -0.419 | C -0.282 | F -0.004 | A -0.603 | E -0.696 | R -0.731 | S -0.741 | H -0.44
P62: E -0.118 | F -0.191 | V -0.128 | N -0.24 | A -0.16 | R -0.149 | Q -0.167 | I -0.082 | W -0.365 | T -0.163 | K -0.036 | G -0.085 | Y -0.624 | C -0.201 | H -0.025
L60: F -0.079 | T -0.039 | E -0.847 | V -0.02 | R -0.519 | G -0.79 | D -0.601 | H -0.285 | A -0.081 | K -0.106 | Y -0.117 | W -0.074 | M -0.062 | N -0.395 | Q -0.242 | P -0.855 | I -0.067
E72: W -0.179 | D -0.037 | L -0.173 | R -0.122 | A -0.033 | K -0.133 | C -0.071 | V -0.043 | P -0.269 | N -0.002 | Y -0.186 | F -0.24 | T -0.078 | S -0.084 | I -0.213 | Q -0.026 | G -0.089
L68: A -0.114 | C -0.153 | P -0.749 | M -0.109 | E -0.564 | T -0.317 | H -0.358 | D -0.733 | Q -0.311 | N -0.673 | S -0.285 | W -0.43 | R -0.626 | F -0.312 | K -0.809 | V -0.052 | G -0.563 | Y -0.298 | I 0.006
K61: I -0.128 | C -0.194 | L -0.198 | N -0.628 | F -0.324 | M -0.133 | H -0.183 | G -0.241 | A -0.05 | P -0.829 | R -0.02 | E -0.273 | Q -0.017 | D -0.898 | W -0.181 | T -0.254 | V -0.065 | S -0.153 | Y -0.108
K66: A -0.055 | E -0.061 | Y -0.132 | V -0.066 | H -0.104 | P -0.544 | W -0.161 | Q -0.036 | T -0.007 | I -0.142 | C -0.063 | G -0.038 | M -0.157 | F -0.248 | S -0.147 | N -0.019 | D 0.018 | R -0.024
L63: R -0.022 | E -0.127 | V -0.032 | Q -0.108 | T -0.059 | N -0.026 | F -0.221 | C -0.031 | H 0.011 | S -0.055 | Y -0.173 | G -0.06 | I 0.072 | P -0.092 | M -0.027 | A 0.024 | W -0.07
P75: W -0.183 | S -0.067 | F -0.185 | Q -0.086 | K -0.128 | H -0.044 | L 0.022 | A 0.044 | G 0.011 | C -0.076 | R -0.044 | M -0.059 | E -0.017
